Drawing on the supplement of paper PMC10567573, this text covers protein stability index for 94 variants.

B1: ADAMTS4 (parent)
chain: HVDPEEPWSPCSARFITDFLDNGY
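Further: lentivirally expressed fusions sorted by FACS into six bins by GFP to DsRed ratio, PSI derived from sequencing read proportions per bin multiplied by bin number.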

The variants in this data set derive from B1. In words: protein stability index of a GFP-peptide fusion (GPS, HEK-293T) (PSI 1-6); higher = more stable. The following applies: c terminus: a fixed tail appended.
As to HVDPEEPYSPCSARFITDFLDNGY [W8Y], the protein stability index came out at 2.89. The same measure for HVDPEEPQSPCSARFITDFLDNGY [W8Q]: 3.37; for HVDPEEPRSPCSARFITDFLDNGY [W8R]: 3.36.

Regarding HVDPEEPDSPCSARFITDFLDNGY [W8D], the protein stability index was 3.66. Regarding HVDPEEPGSPCSARFITDFLDNGY [W8G], the protein stability index was determined as 3.2.

With HVDPEEPVSPCSARFITDFLDNGY [W8V], the protein stability index was determined as 3.5. In the case of HVDPEEPFSPCSARFITDFLDNGY [W8F] it was 2.29. For the variant HVDPEEPESPCSARFITDFLDNGY [W8E], the protein stability index came out at 3.92.

On to HVDPEEPKSPCSARFITDFLDNGY [W8K], for which the protein stability index came to 3.48. In the case of HVDPEEPMSPCSARFITDFLDNGY [W8M], the protein stability index was found to be 2.82. In the case of HVDPEEPASPCSARFITDFLDNGY [W8A] it was 3.47; in that of HVDPEEPTSPCSARFITDFLDNGY [W8T], 3.54; in that of HVDPEEPISPCSARFITDFLDNGY [W8I], 3.34. In the case of HVDPEEPNSPCSARFITDFLDNGY [W8N], the protein stability index was found to be 2.95. Take HVDPEEPCSPCSARFITDFLDNGY [W8C]: the protein stability index was found to be 3.39.

Consider HVDPEEPPSPCSARFITDFLDNGY [W8P], for which the protein stability index came to 3.49. With HVDPEEPSSPCSARFITDFLDNGY [W8S], the protein stability index stood at 3.27. The same measure for HVDPEEPLSPCSARFITDFLDNGY [W8L]: 3.24. With HVDPEEPHSPCSARFITDFLDNGY [W8H], the protein stability index was 3.44. Consider HVDPEEPWLPCSARFITDFLDNGY [S9L], for which the protein stability index came to 1.67. As for HVDPEEPWQPCSARFITDFLDNGY [S9Q], the protein stability index is 1.62. In the case of HVDPEEPWRPCSARFITDFLDNGY [S9R] it was 1.93.

As for HVDPEEPWHPCSARFITDFLDNGY [S9H], the protein stability index was found to be 2.17. In the case of HVDPEEPWMPCSARFITDFLDNGY [S9M] it was 1.77; in that of HVDPEEPWKPCSARFITDFLDNGY [S9K], 1.97; in that of HVDPEEPWDPCSARFITDFLDNGY [S9D], 2.79. In the case of HVDPEEPWAPCSARFITDFLDNGY [S9A] it was 2.05. As to HVDPEEPWIPCSARFITDFLDNGY [S9I], the protein stability index is 2.29. The same measure for HVDPEEPWTPCSARFITDFLDNGY [S9T]: 1.79. For HVDPEEPWCPCSARFITDFLDNGY [S9C], the protein stability index came out at 2.08. Consider HVDPEEPWNPCSARFITDFLDNGY [S9N], for which the protein stability index amounted to 1.67. In the case of HVDPEEPWEPCSARFITDFLDNGY [S9E] it was 3.19. In the case of HVDPEEPWPPCSARFITDFLDNGY [S9P] it was 2.32. The same measure for HVDPEEPWGPCSARFITDFLDNGY [S9G]: 2.24. As to HVDPEEPWWPCSARFITDFLDNGY [S9W], the protein stability index stood at 1.75.

Turning to HVDPEEPWVPCSARFITDFLDNGY [S9V], the protein stability index worked out at 1.66. The same measure for HVDPEEPWYPCSARFITDFLDNGY [S9Y]: 1.85; for HVDPEEPWFPCSARFITDFLDNGY [S9F]: 1.93; for HVDPEEPWSPISARFITDFLDNGY [C11I]: 1.79. Regarding HVDPEEPWSPNSARFITDFLDNGY [C11N], the protein stability index was 1.9. In the case of HVDPEEPWSPTSARFITDFLDNGY [C11T] it was 2.15; in that of HVDPEEPWSPMSARFITDFLDNGY [C11M], 1.6; in that of HVDPEEPWSPWSARFITDFLDNGY [C11W], 1.86. In the case of HVDPEEPWSPLSARFITDFLDNGY [C11L] it was 1.69; in that of HVDPEEPWSPGSARFITDFLDNGY [C11G], 2.05; in that of HVDPEEPWSPRSARFITDFLDNGY [C11R], 1.7. In the case of HVDPEEPWSPDSARFITDFLDNGY [C11D] it was 2.05; in that of HVDPEEPWSPSSARFITDFLDNGY [C11S], 2.19; in that of HVDPEEPWSPKSARFITDFLDNGY [C11K], 2.21. Consider HVDPEEPWSPQSARFITDFLDNGY [C11Q], for which the protein stability index was 2.18. In the case of HVDPEEPWSPYSARFITDFLDNGY [C11Y], the protein stability index is 3.06. In the case of HVDPEEPWSPVSARFITDFLDNGY [C11V] it was 1.82; in that of HVDPEEPWSPESARFITDFLDNGY [C11E], 2; in that of HVDPEEPWSPASARFITDFLDNGY [C11A], 2.41.

For HVDPEEPWSPPSARFITDFLDNGY [C11P], the protein stability index was 2. The same measure for HVDPEEPWSPFSARFITDFLDNGY [C11F]: 2.1; for HVDPEEPWSPHSARFITDFLDNGY [C11H]: 2.06. In the case of HVDPEEPWSPCSDRFITDFLDNGY [A13D], the protein stability index was found to be 2.35.

As for HVDPEEPWSPCSERFITDFLDNGY [A13E], the protein stability index was determined as 2.1. As to HVDPEEPWSPCSKRFITDFLDNGY [A13K], the protein stability index is 2.08. The same measure for HVDPEEPWSPCSFRFITDFLDNGY [A13F]: 1.92; for HVDPEEPWSPCSHRFITDFLDNGY [A13H]: 1.85; for HVDPEEPWSPCSGRFITDFLDNGY [A13G]: 1.5. As to HVDPEEPWSPCSIRFITDFLDNGY [A13I], the protein stability index was found to be 2.19. With HVDPEEPWSPCSCRFITDFLDNGY [A13C], the protein stability index was 2.54. For HVDIEEPWSPCSARFITDFLDNGY [P4I], the protein stability index is 1.77. In the case of HVDFEEPWSPCSARFITDFLDNGY [P4F] it was 1.63. HVDTEEPWSPCSARFITDFLDNGY [P4T]: the protein stability index came to 1.8. Regarding HVDQEEPWSPCSARFITDFLDNGY [P4Q], the protein stability index is 1.9.

Regarding HVDLEEPWSPCSARFITDFLDNGY [P4L], the protein stability index was found to be 1.63. The same measure for HVDHEEPWSPCSARFITDFLDNGY [P4H]: 2.21; for HVDMEEPWSPCSARFITDFLDNGY [P4M]: 1.77. In the case of HVDGEEPWSPCSARFITDFLDNGY [P4G], the protein stability index amounted to 2.9.

Regarding HVDCEEPWSPCSARFITDFLDNGY [P4C], the protein stability index was 2.23. Take HVDAEEPWSPCSARFITDFLDNGY [P4A]: the protein stability index is 1.63. The same measure for HVDYEEPWSPCSARFITDFLDNGY [P4Y]: 1.98. In the case of HVDWEEPWSPCSARFITDFLDNGY [P4W] it was 1.69; in that of HVDREEPWSPCSARFITDFLDNGY [P4R], 2.42.

In the case of HVDKEEPWSPCSARFITDFLDNGY [P4K], the protein stability index was 1.87. The same measure for HVDSEEPWSPCSARFITDFLDNGY [P4S]: 1.9; for HVDVEEPWSPCSARFITDFLDNGY [P4V]: 1.62; for HVDNEEPWSPCSARFITDFLDNGY [P4N]: 1.95. HVDEEEPWSPCSARFITDFLDNGY [P4E]: the protein stability index was 2.07.

HVDDEEPWSPCSARFITDFLDNGY [P4D]: the protein stability index stood at 2.11. In the case of HVDPEEPWSRCSARFITDFLDNGY [P10R] it was 1.83; in that of HVDPEEPWSWCSARFITDFLDNGY [P10W], 2.08. In the case of HVDPEEPWSGCSARFITDFLDNGY [P10G] it was 1.88; in that of HVDPEEPWSFCSARFITDFLDNGY [P10F], 1.92; in that of HVDPEEPWSLCSARFITDFLDNGY [P10L], 1.72. Consider HVDPEEPWSVCSARFITDFLDNGY [P10V], for which the protein stability index stood at 1.74. In the case of HVDPEEPWSKCSARFITDFLDNGY [P10K] it was 2.21; in that of HVDPEEPWSQCSARFITDFLDNGY [P10Q], 2.1. In the case of HVDPEEPWSICSARFITDFLDNGY [P10I] it was 2.1; in that of HVDPEEPWSCCSARFITDFLDNGY [P10C], 1.5.
